Test results from patent US20140093973A1 (BOARD OF REGENTS OF THE UNIVERSITY OF OKLAHOMA, published 2014).
Ends that are not written are not given here.

Legend:
[1] = target: T1, soluble HLA-B*4402 (human); assay: FP screen of 53 sHLA
T1 construct: Member of the panel of 53 single-specificity sHLA

[2] = target: T2, soluble HLA-B*4001 (human); assay: FP screen of 53 sHLA with FITC-peptide
T2 construct: Member of the panel of 53 single-specificity sHLA

[3] = target: T3, soluble HLA-B*1801 (human); assay: FP screen of 53 sHLA with FITC-peptide
T3 construct: Member of the panel of 53 single-specificity sHLA

[4] = target: T4, soluble HLA-B*4002 (human); assay: FP screen of 53 sHLA with FITC-peptide
T4 construct: Member of the panel of 53 single-specificity sHLA

[5] = target: T2, soluble HLA-B*4001; assay: FP screen of 53 sHLA
[6] = target: T5, soluble HLA-B*1501 (human); assay: FP screen of 53 sHLA with FITC-peptide
T5 construct: Member of the panel of 53 single-specificity sHLA

[7] = target: T6, soluble HLA-A*6801 (sHLA-A*6801) (human); assay: FP screen
T6 construct: Recombinant soluble class I with endogenous peptides, made as m1

[8] = target: T7, soluble HLA-A*1102 (sHLA-A*1102) (human, UniProt P04439 25-308; P61769 21-119); assay: FP screen
T7 construct: Recombinant soluble class I with endogenous peptides, made as m1

[9] = target: T8, soluble HLA-A*6901 (sHLA-A*6901) (human); assay: FP screen
T8 construct: Recombinant soluble class I with endogenous peptides, made as m1

[10] = target: soluble HLA-A*0201 (sHLA-A*0201) (human); assay: FP screen
[11] = target: T9, soluble HLA-A*2902 (human); assay: FP screen
T9 construct: Member of the panel of 53 single-specificity sHLA

[12] = target: T10, soluble HLA-B*1512 (human); assay: FP screen
T10 construct: Member of the panel of 53 single-specificity sHLA

[13] = target: T11, soluble HLA-B*4501 (human); assay: FP screen
T11 construct: Member of the panel of 53 single-specificity sHLA

[14] = target: T12, soluble HLA-A*3601 (human); assay: FP screen
T12 construct: Member of the panel of 53 single-specificity sHLA

[15] = target: T13, soluble HLA-B*1302 (human); assay: FP screen
T13 construct: Member of the panel of 53 single-specificity sHLA

[16] = target: T14, soluble HLA-A*2601 (human); assay: FP screen
T14 construct: Member of the panel of 53 single-specificity sHLA

[17] = target: T15, soluble HLA-A*6601 (human); assay: FP screen
T15 construct: Member of the panel of 53 single-specificity sHLA

[18] = target: T16, soluble HLA-A*3002 (human); assay: FP screen
T16 construct: Member of the panel of 53 single-specificity sHLA

[19] = target: T17, soluble HLA-B*2705 (sHLA-B*2705) (human); assay: FP screen
T17 construct: Recombinant soluble class I with endogenous peptides, made as m1; negative control

[20] = target: T18, soluble HLA-A*2402 (human); assay: FP screen
T18 construct: Member of the panel of 53 single-specificity sHLA

[21] = target: T1, soluble HLA-B*4402; assay: FP screen
[22] = target: T19, soluble HLA-A*3402 (human); assay: FP screen
T19 construct: Member of the panel of 53 single-specificity sHLA

[23] = target: T20, soluble HLA-A*4301 (sHLA-A*4301) (human); assay: FP screen
T20 construct: Recombinant soluble class I with endogenous peptides, made as m1

[24] = target: T21, soluble HLA-A*2301 (human); assay: FP screen
T21 construct: Member of the panel of 53 single-specificity sHLA

[25] = target: T22, soluble HLA-A*0301 (human); assay: FP screen
T22 construct: Member of the panel of 53 single-specificity sHLA

B1: AELLAAKF, FITC-labeled B44-like peptide (peptide)
peptide: AELLAAKF
modifications: also: FITC-labeled, position not given here
binding result [1]: no binding (tested: 2 nM peptide, 100 ug/ml activated sHLA) | binding result [2]: binds | binding result [3]: binds | binding result [4]: binds

B2: EEKLIVKQY, FITC-labeled B44-like peptide (peptide)
peptide: EEKLIVKQY
modifications: also: FITC-labeled, position not given here
binding result [5]: binds | binding result [6]: binds | binding result [3]: binds | binding result [7]: no binding (tested: 100 ug/ml sHLA) | binding result [8]: no binding (tested: 100 ug/ml sHLA) | binding result [9]: no binding (tested: 100 ug/ml sHLA) | binding result [10]: no binding (tested: 100 ug/ml sHLA) | binding result [11]: no binding (tested: 100 ug/ml sHLA) | binding result [12]: no binding (tested: 100 ug/ml sHLA) | binding result [13]: no binding (tested: 100 ug/ml sHLA) | binding result [14]: no binding (tested: 100 ug/ml sHLA) | binding result [15]: no binding (tested: 100 ug/ml sHLA) | binding result [16]: no binding (tested: 100 ug/ml sHLA) | binding result [17]: no binding (tested: 100 ug/ml sHLA) | binding result [18]: no binding (tested: 100 ug/ml sHLA) | binding result [19]: no binding (tested: 100 ug/ml sHLA) | binding result [20]: no binding (tested: 100 ug/ml sHLA) | binding result [21]: no binding (tested: 100 ug/ml sHLA) | binding result [22]: no binding (tested: 100 ug/ml sHLA) | binding result [23]: no binding (tested: 100 ug/ml sHLA) | binding result [24]: no binding (tested: 100 ug/ml sHLA) | binding result [25]: no binding (tested: 100 ug/ml sHLA)
